Measurements reported in US20160053022A1 (PETER MACCALLUM CANCER INSTITUTE, published 2016).

Experiments:
hRYK.Fc = target: T1, hRYK.Fc (human, UniProt P34925 26-227); assay: ELISA: immobilized RWD1 probed with hRYK.Fc; the concentration on the axis is that of the RWD1 used for immobilization, the hRYK.Fc concentration of this graph is not given
T1 construct: extracellular domain; also called hRYK.Fc.FLAG; FLAG-tagged hRYK.Fc; not shown: Fc
Procedure: Purified RWD1 antibody (20 μg) was used in immunoprecipitation experiments, to determine its ability to inhibit hRYK.Fc binding to Wnt3a.Myc5 or Wnt5a.Myc5 (10 μg and 20 μg, respectively; of transfected HEK293T cell lysate). Immunoprecipitations (IP) were performed to pull down hRYK.Fc (250 ng), then immunoblotted (IB) with an anti-Myc tag antibody to detect Wnt binding. Molecular mass standards are shown at the left in kDa. IgG, normal human IgG. (B) ELISA results of immobilized RWD1 antibody probed with hRYK.Fc protein. […] Results represent the mean±standard deviation of two to three independent experiments. IgG, normal human IgG; OD, optical density.
RYK binding was determined by ELISA as described previously (Davydova N, et al., 2011, J Mol Biol 407: 581-593), using bound RWD1 and probed with purified hRYK.Fc. All SPRi analyses were performed at 25° C. using HBST (10 mM HEPES, pH 7.4, 150 mM NaCl, 0.05% (v/v) Tween-20) as the running buffer. A ProteOn XPR36 SPRi biosensor, GLC sensor chips and coupling reagents (10 mM sodium acetate, pH 4.5; sulfo-N-hydroxysuccinimide (SNHS); 1-ethyl-3-(3-dimethylaminopropyl)-carbodiimide hydrochloride (EDC); and ethanolamine) were purchased from Bio-Rad Laboratories. All antibodies and ligands used for kinetic analysis were buffer exchanged with PBS. Immobilizations were performed at 30 μl/min on the GLC chip. […]

hRYKWD.Fc [1] = target: T2, hRYKWD.Fc (human, UniProt P34925 66-194, limits assumed); assay: SPRi (ProteOn XPR36, GLC chip), RWD1 immobilized, hRYKWD.Fc injected at 31.25-500 nM, 25 °C; calculated from ka and kd
T2 construct: domain: WIF domain; also called hRYKWD.Fc.FLAG; fusion protein containing the human RYK WIF domain; not shown: Fc region of human IgG1
T2 sequence (P34925 66-194 limits assumed): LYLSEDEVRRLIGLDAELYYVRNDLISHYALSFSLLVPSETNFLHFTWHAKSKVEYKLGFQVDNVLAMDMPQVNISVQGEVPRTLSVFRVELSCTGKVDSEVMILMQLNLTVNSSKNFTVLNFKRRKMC
Procedure: (§1) RYK binding was determined by ELISA as described previously (Davydova N, et al., 2011, J Mol Biol 407: 581-593), using bound RWD1 and probed with purified hRYK.Fc. All SPRi analyses were performed at 25° C. using HBST (10 mM HEPES, pH 7.4, 150 mM NaCl, 0.05% (v/v) Tween-20) as the running buffer. A ProteOn XPR36 SPRi biosensor, GLC sensor chips and coupling reagents (10 mM sodium acetate, pH 4.5; sulfo-N-hydroxysuccinimide (SNHS); 1-ethyl-3-(3-dimethylaminopropyl)-carbodiimide hydrochloride (EDC); and ethanolamine) were purchased from Bio-Rad Laboratories. All antibodies and ligands used for kinetic analysis were buffer exchanged with PBS. Immobilizations were performed at 30 μl/min on the GLC chip. Prior to immobilization, chips were preconditioned with two sequential 10 sec pulses of 50 mM NaOH, 100 mM HCl and 0.5% SDS, followed by equilibration with HBST. For surface activation, 0.4 M EDC and 0.1 M SNHS were each diluted 50-fold in water and mixed together to give a final composition of 8 mM EDC in 2 mM SNHS. Separate vertical channels were activated with 150 μl of the EDC/SNHS mixture. IgGs for immobilization (RWD1 antibody and normal human IgG (R&D Systems; control)) were diluted to 50 μg/ml in 10 mM acetate, pH 4.5, and coupled (3×150 μl) along separate vertical channels followed by an injection of ethanolamine (150 μl) to block the reaction spots. […]

hRYKWD.Fc [2] = target: T2, hRYKWD.Fc; assay: SPRi (ProteOn XPR36, GLC chip), RWD1 immobilized, hRYKWD.Fc injected at 31.25-500 nM, 25 °C, global 1:1 Langmuir fit with mass transfer
Procedure: as §1

T1 sequence (P34925 26-227): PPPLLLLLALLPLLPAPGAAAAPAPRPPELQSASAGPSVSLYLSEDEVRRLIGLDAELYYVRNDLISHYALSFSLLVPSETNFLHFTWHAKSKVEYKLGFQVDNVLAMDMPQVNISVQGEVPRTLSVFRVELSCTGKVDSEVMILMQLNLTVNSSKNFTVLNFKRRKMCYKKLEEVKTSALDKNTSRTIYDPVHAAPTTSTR

B1: RWD1 (antibody, human IgG1, kappa, V domains shown)
VH: EVQLLESGGGLVQPGGSLRLSCAASGFTFSSYAMSWVRQAPGKGLEWVSLIHKAGHTTQYADSVKGRFTISRDNSKNTLYLQMNSLRAEDTAVYYCAKGYRHFDYWGQGTLVTVSS
VL: DIQMTQSPSSLSASVGDRVAITCRASQSISSYLNWYQQKPGKAPKLLIYRASNLQSGVPSRFSGSGSGTDFTLTISSLQPEDFATYYCQQAVGSPRTFGQGTKVEIKR
notes: Variable regions of scFv3 grafted onto a human IgG1 gamma heavy chain and human kappa light chain; fully human monoclonal antibody; also called RWD1 antibody
hRYK.Fc
  EC50 (read off the curve): ~5 µg/mL
hRYKWD.Fc [1]
  Kd: 4.2 nM
hRYKWD.Fc [2]
  koff: 0.00037 s⁻¹
  kon: 88000 M⁻¹ s⁻¹
